Data reported in PMC11948038, “Evolutionary Pro‐To‐Thr Mutation in the Intrinsically Disordered Domain of ANP32 Family Members Modulates Their Target Binding Modes” (Advanced Science, 2025).

B1: ANP32B_(232-251) peptide (peptide)
peptide: EEGGKGEKRKRETDDEGEDD
notes: also called ANP32B peptide; source: synthetic peptide (Genecust, France)
B2: ANP32A_(230-249) P241T peptide (peptide)
peptide: EEERGQKRKRETEDEGEDDD
notes: also called single mutant; source: synthetic peptide (Genecust, France)
B3: ANP32A_(230-249) peptide (peptide)
peptide: EEERGQKRKREPEDEGEDDD
notes: also called ANP32A peptide; NLS-containing peptide; source: synthetic peptide (Genecust, France)
B4: ANP32A_(230-249) Q235E/P241T peptide (peptide)
peptide: EEERGEKRKRETEDEGEDDD
notes: also called double mutant; source: synthetic peptide (Genecust, France)
B5: ANP32B_(232-251) peptide (peptide)
peptide: EEGGKGEKRKRETDDEGEDD
notes: as for B1
B6: ANP32A_(230-249) peptide (peptide)
peptide: EEERGQKRKREPEDEGEDDD
notes: also called ANP32A peptide; source: synthetic peptide (Genecust, France)
B7: cytochrome c (natural protein)
chain: not shown
notes: cytochrome c (Cc), a hemeprotein; Carries a heme group; the reduced form was used in ITC and NMR relaxation; 15N-labelled for the NMR titrations; Expression and purification are in the Supporting Information Appendix; also called Cc; hemeprotein Cc; source: details in the Supporting Information

Key:
Settings in all cases: both partners purified
HuR_(106-326) [1] = target: T1, HuR_(106-326) (UniProt Q15717 106-326); test: ITC; 1 mM peptide titrated onto 100 µM HuR106-326 in the cell; 17 injections of 2.91 µL; 10 mM sodium phosphate buffer pH 6.3 (low ionic strength); stirring 200 rpm; Nano ITC Low Volume
T1 construct: amplified from a pGEX-4T-2 plasmid carrying full-length HuR; No cleavage of the tags is told; also called human antigen R construct with RRM2, hinge region and RRM3; source: E. coli BL21 (DE3), purified (Ni-NTA, dialysis)
T1 sequence (Q15717 106-326): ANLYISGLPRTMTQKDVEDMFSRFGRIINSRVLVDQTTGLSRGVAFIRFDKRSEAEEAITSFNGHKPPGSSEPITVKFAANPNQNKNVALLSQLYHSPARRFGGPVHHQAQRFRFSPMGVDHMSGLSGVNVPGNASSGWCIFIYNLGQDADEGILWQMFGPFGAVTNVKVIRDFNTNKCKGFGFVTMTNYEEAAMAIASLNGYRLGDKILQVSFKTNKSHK

cytochrome c = target: B7; test: ITC; 1 mM peptide titrated onto 110 or 150 µM reduced Cc; 10 mM sodium phosphate pH 6.3; single binding-site model
HuR_(106-326) [2] = target: T2, HuR_(106-326) (UniProt Q15717 106-326); test: ITC; 1 mM peptide titrated onto 100 µM HuR_(106-326); 10 mM sodium phosphate pH 6.3, low ionic strength
T2 construct: also called HuR construct containing the RRM domains 2 and 3, separated by the hinge region; source: details in the Supporting Information
T2 sequence (Q15717 106-326): as above

full-length ANP32A [3] = target: T3, full-length ANP32A (human, UniProt P39687 1-249); test: ITC; moderate ionic strength (100 mM): 20 mM sodium phosphate pH 7.4 with 50 mM NaCl; 400 µM reduced Cc injected into 50 µM ANP32A; single site
T3 construct: Used in ITC and NMR titrations; construct details are in the Supporting Information Appendix; also called acidic leucine-rich nuclear phosphoprotein 32 A; source: details in the Supporting Information

full-length ANP32A [4] = target: T3, full-length ANP32A; test: ITC; low ionic strength (25 mM): 10 mM sodium phosphate pH 7.4; 400 µM reduced Cc injected into 50 µM ANP32A construct; two-ligand binding sites model, no cooperativity
biotinylated ANP32A = target: T4, biotinylated ANP32A (human, UniProt P39687 1-249, biotin (site not stated)); test: BLI; biotinylated ANP32 proteins on a streptavidin-coated sensor, increasing concentrations of Cc; wavelength shifts at equilibrium plotted against Cc concentration
T4 construct: ANP32A, human, biotinylated and attached to a streptavidin-coated sensor

biotinylated ANP32B = target: T5, biotinylated ANP32B (human, UniProt Q92688 1-251, biotin (site not stated)); test: as above
T5 construct: ANP32B, human, biotinylated and attached to a streptavidin-coated sensor

full-length ANP32A [5] = target: T3, full-length ANP32A; test: ITC; low ionic strength (25 mM): 10 mM sodium phosphate pH 7.4; 400 µM reduced Cc injected into 50 µM ANP32A construct; two-ligand binding sites model, no cooperativity; remark: listed apart in the source

Sequence of cytochrome c (P99999 2-105): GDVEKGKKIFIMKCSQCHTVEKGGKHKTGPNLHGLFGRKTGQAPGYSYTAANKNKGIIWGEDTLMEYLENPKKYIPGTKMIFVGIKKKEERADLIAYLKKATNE

B1
Kd (HuR_(106-326) [1]): 550 µM | stoichiometry N (HuR_(106-326) [1]): 1.9 ± 0.03

B2
Kd (cytochrome c): 190 µM | dH (cytochrome c): -6.9 kcal/mol | stoichiometry N (cytochrome c): 0.77 ± 0.03

B3
Kd (cytochrome c): 69 µM | dH (cytochrome c): -2.6 kcal/mol | stoichiometry N (cytochrome c): 0.76 ± 0.03 | fold affinity against ANP32B_(232-251) (HuR_(106-326) [2]): ~5 fold | stoichiometry N (HuR_(106-326) [2]): 2

B4
Kd (cytochrome c): 190 µM | dH (cytochrome c): -8.2 kcal/mol | stoichiometry N (cytochrome c): 0.77 ± 0.03

B5
Kd (cytochrome c): 710 µM | dH (cytochrome c): -8 kcal/mol | stoichiometry N (cytochrome c): 1.2 ± 0.03 | stoichiometry N (HuR_(106-326) [2]): 2

B6
Kd (HuR_(106-326) [1]): 120 µM | stoichiometry N (HuR_(106-326) [1]): 1.8 ± 0.03

B7
Kd (full-length ANP32A [3]): 32 µM | dH (full-length ANP32A [3]): 1.5 kcal/mol | stoichiometry N (full-length ANP32A [3]): 0.6 ± 0.03 | KD of site 1 (full-length ANP32A [4]): 3.6 µM | KD of site 2 (full-length ANP32A [4]): 34 µM | dH of site 1 (full-length ANP32A [4]): 0.4 kcal/mol | dH of site 2 (full-length ANP32A [4]): 8.6 kcal/mol | Kd (biotinylated ANP32A): ~2300 nM | Kd (biotinylated ANP32B): ~4.2 µM | stoichiometry N (full-length ANP32A [5]): 2
